Experiment: yeast display, Sf9 membrane polyspecificity reagent, FACS + sequencing; frameworks hold sequencing errors
In short: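 Nanobodies from a synthetic yeast display library (Saccharomyces cerevisiae BJ5465), induced 36–48 hours with galactose, were stained 1 hour at 4 °C with 10% biotinylated, detergent-solubilized Sf9 membrane reagent, enriched on streptavidin microbeads, then FACS-sorted. Anti-HA (expression) and streptavidin (reagent binding) fluorescence set low and high (top ~1%) gates. Polyreactivity labels come from the gate of origin. Genes were colony-PCR amplified, MiSeq 2 × 250 sequenced and filtered by CDR length.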

Sequence	polyreactivity (PSR sort gate)
QDQLVESGGGIVQAGGSLRLSCAASGFIFSTNAMGWYRQAPGKERELVAAITGRGTNTYYADSVKGRFTISRDNAKNTVYLQMNSLKPEDTAVYYCAADNKDSEDDYWGQGTQVTVSS	high polyreactivity
QDQLVESGGGIVQAGGSLRLSCAASGFIFYTYAMGCYRQAPGKESELVAAISSRGTRTYYADSVKGRFTISRDNAKNTVFLQMNSLKPEDTAVYYCAAVSYSYEYPSFDMGYWGQGTQVTVSS	high polyreactivity
QDQLVESGGGIVQAGGSLRLSCAASGSTFTWYAMGWYLQDPGKEREFVAAITRSGDSTYYADSVKGRFTISRDNAKNTVYLEMNSLKPEDTAVYYCAASNDYLRGWFDYWGQGTQVTVSS	low polyreactivity
QDQLVESGGGLDQAGCILRLSCAASGITFSVYTMGWSRQAPGKERELVAANDSDGITNYADSVKGRFTISRDNAKNTDYLQMNSLKPEDTAVYYCNAIADGSSSRWRPYSKFYYWGKGTQVTVSS	low polyreactivity
QDQLVESGGGLDQAGGSLRLSCAASGSTFPGYAMGWYRQAPGKERELVASIYTGGSTYYADSVKGRFTISRDNAKNTVYLQMNSLKPEDTAVYYCAADSYNVSSLLYYWGQGTQVTVSS	low polyreactivity
QDQLVESGGGLDQAGGSLRLSCAASGSTLGNNAMGWYRQAPGKERELVAAISTRGGSTYYADSVKGRFTISRDNAKNTVYLQMNSLKPEDTAVYYCAADFGQYHGDVRKMDYWGQGTQVTVSS	low polyreactivity
QDQLVESGGGLVQAGCSLRLSCAASGFIFPNYAMGWYRQAPGKERELVAAISTDGSTNYADSVKGRFTISRDNAKTTVYLQMNSLKTEDTAVYYCAKYGRVKPQRYDYDYWGQGTQVTVSS	high polyreactivity
QDQLVESGGGLVQAGGILRLSSSASGFTFAYYAMGWYRQSTGKERQLVAAISSRGGSTYYADTVKGRFSISRDNAKNTVYLQMNILKPEDTAVYYCAAEFGLWPYEYGYCGQGTQVTVSS	high polyreactivity
QDQLVESGGGLVQAGGRLRLSCAASGRIIRTYARGWDRQAPGKERELVAAITNGDSTNYADSVMGRFTMSRDNAKNTVYLQMNSLKPEDTAVYYCAVGAVVPGRRRRTYYYWGQGTQVTVSS	high polyreactivity
QDQLVESGGGLVQAGGSHRLTCAASGFIFAYYAMGWYRQAPGKERELVAAISRSGARTYYADSVKGRFTISRDNAKNTVYLQMKSLKPEDTAVFYCSARIIVDVVGTKYYYWGQGTQVTVSS	high polyreactivity
QDQLVESGGGLVQAGGSLRISCAASGRIFDYNAMGWYRQAPGKERELVAAITGGGNTTYADSVKGRFTISRDNAKNTVYLQMNSLKPEDTAVYYCAADVVSVYRLSYKPLGYYWGQGTQVTVSS	low polyreactivity
QDQLVESGGGLVQAGGSLRLICAASGFTITTYAMGWYRQAPGKERELVASISYSGGRTYYADSVKGRFTISRDNAKNTVYLQLNSLKPEDTAVYFCAAVGVRNRAPSRGGYWGQGPQVTVSS	high polyreactivity
QDQLVESGGGLVQAGGSLRLICAASGITFLVNAMGWYRQAPGKERELVAGITSGDSTNYADSVKGRFTISRDNAKNTVYLQMNSLKPEDTAVYYCATVLYVGSGGGGILWDDDYWGQGTQVTVSS	low polyreactivity
QDQLVESGGGLVQAGGSLRLICAASGSIFTSNAMGWYRQAAGKERELVAAITSSGGSTYYADSVKGRFTISRDNAKNTVYLHMNSLKPEYTAVYYCAAAKFDLSFWLYYWGQGTQVTVSS	low polyreactivity
QDQLVESGGGLVQAGGSLRLICAASGYIFVYNAMGWYRQTPWKERELVAAITDGGGSTYADSVKGRFTISRDNAKNSVYLQMNSLKPEDTAVYYCSARYSDTTWYVLYYYWGQGTQVTVSS	low polyreactivity
QDQLVESGGGLVQAGGSLRLIFAASGSIFNGYAMGWSRQAPGKERELVADIRSGGSTYYADSVMGRFTISRDNAKNTVYLQMNSLKPEDTAVYYGAADTITDGYDYWGQGSQVTVSS	low polyreactivity
QDQLVESGGGLVQAGGSLRLPCAASGYIFFFNAIGWYRQAPGKERELVAAITRRGVSTYYADSVKGRFTISRDNAKNTVYLQMNSLNPEDTAVYYCATDHNHLGYYYWGQGTQVTVSS	low polyreactivity
QDQLVESGGGLVQAGGSLRLRCAASGFTFGCYAMGWYRQAPGKERELVASITSGGSTNYADSVKGRFTISRDNAKNTVYLQMNTLKPEDTAVYYCAKDLLGFDKVQYKIEDYWGQGTQVTVSS	low polyreactivity
QDQLVESGGGLVQAGGSLRLSCAASGFIFSWYAMGWYRQPPGKERELVAGISIRGGRTYADSVKGRFTISRDNAKNTVYLQMNSLKPDDTAVYYCATRSYRPYHSLYDYWGQGTQVTVSS	high polyreactivity
QDQLVESGGGLVQAGGSLRLSCAASGFILKYYAMGWYRQAPGKEREFVAAITVSGGSTYYADSVKGRFTISRDNAKNTVYLQMNSLKPVDTAVYYCNADYPRGGAGLPDYWGQGTQVTVSS	low polyreactivity
QDQLVESGGGLVQAGGSLRLSCAASGFNFMSKGMGWYRQAHGKETEFVAVITSSTGSTSYADSVKGRFTISRDNAKNTVYLQMNSLKPEDTGVFYCAADAYYYYAGGHYYWGQGTQVTVSS	low polyreactivity
QDQLVESGGGLVQAGGSLRLSCAASGFTCRYYAMGWYRQAPGKERELVAAITGSGTRTYYADSVKGRFTISRDNAKNTVYLQMNSLKPEETAVYYCYPPRQPRWFDYWGQGTQVTVSS	high polyreactivity

Sequence	polyreactivity (PSR sort gate)
QDQLVESGGGLVQAGGSLRLSCAASGFTFDENAMGWYRQAPGINYSGASTYYADSVKGRFTISRDNAKNTVYLQMNSLKPEDTAVYYCAAEVVAQMNYWGQGTQVTVSS	low polyreactivity
QDQLVESGGGLVQAGGSLRLSCAASGFTFGNNARGWYRQAPGKERQFVATISRRGGSTYYADSVKGRFTISRDNAKYTVYLQMNSLKPEDTAVYSCAVDRAGIKLAAGYDYWGQGTQVTVSS	high polyreactivity
QDQLVESGGGLVQAGGSLRLSCAASGFTFYGYAMGWYRQAQGKERELVAAISSSGGRTYYADSVKGRFTISRDNAKNTVYLQMNSLKPEDTAVYYCAARARYIRGGGSRAYIGYYWGQGTQVTVSS	high polyreactivity
QDQLVESGGGLVQAGGSLRLSCAASGGIFPDNAMGWSRKAPGKERELVATISWSGGSTYADSVKWRFTISRDNAKNTVYLQMNRLKPEDTAVYYCAAGSAYLWGQGTQVSVSS	low polyreactivity
QDQLVESGGGLVQAGGSLRLSCAASGGIFYQYAMGWYRQAPGKERELVATITSGGRTSYADSVKGRFTISRDNAKNTFYLQMNSLNPEDTAVYYCAATTGWYGARYGYWGQGTQVTVSS	high polyreactivity
QDQLVESGGGLVQAGGSLRLSCAASGIIFAKYAMGWSRQAPGNERELVAAINARGGSTYYADSVKGRFTISRDNAMNTVYLQMNSLKPEDTAVYYCAAERRSRFGNGVTYDYWGQGTQVTVSS	high polyreactivity
QDQLVESGGGLVQAGGSLRLSCAASGIIFPQYTMGWYRQAPGKERELVAVITSGGSTYYADSVKGRFTISRDNAKNTVYLQMNSLKTEDTAVYYCAADAFYKFDYWGQGTQVTVSS	high polyreactivity
QDQLVESGGGLVQAGGSLRLSCAASGIILGGYVMGWYRQAPGKERELVAALSYSGGRTDYADSVKGRFTISRDKAKNTVYLQMNILNPEDTAVYYCATEYWRYHGITKGYTRYDYWGQGTQVTVSS	high polyreactivity
QDQLVESGGGLVQAGGSLRLSCAASGITFKFYAMGWYRQAPGKERELVAAISWSGGSTYYADSVKGRFTISRDNAKNTVYLQMNSLKPEDTAVYYCAAYTGWIYHTRYRRDYWGQGTQVTVSS	high polyreactivity
QDQLVESGGGLVQAGGSLRLSCAASGITFNRYAMGWYRQAPGKERELVAAISRTGGSTYYADSVKARFTISRDNAKNTVYLQMNSLKPEDTAVYYCASRYTKGMYYWGQVTQVTVSS	high polyreactivity
QDQLVESGGGLVQAGGSLRLSCAASGITFQRYAMGGYRQAPGKERELVAVINFRGSNTFYADSVKGRFTISRDNAKNSVYLQMNSLIPEDTAVYYCAASYVIDIRGYGYWGQGTQVTVSS	low polyreactivity
QDQLVESGGGLVQAGGSLRLSCAASGITFQYYAMGWYRQAPGKERELVAAITKRGGSTYYADSVKGRFTISRDNAKNTVYLQMKSLKPEDTAVYYCAADYGSWRNYIFLDDYWGQGTQVTVSS	high polyreactivity
QDQLVESGGGLVQAGGSLRLSCAASGITFRYYAMGWYRQAPGKERELVAAITGGGGSTYADSVKGRFTISRDNAKNTVYLQMNSLKPEDTAVYYCNATPRARSLPLRYQHDYWLQGTQVTVSS	low polyreactivity
QDQLVESGGGLVQAGGSLRLSCAASGITFYRNAMGWYRQAPGKERELVAAISRRGGITRYADSVKGRFTISRDNAKNTVYLQMNSLKPEDTAVYYCAKAIGSTALRRATEDYWGQGTQVTVSS	high polyreactivity
QDQLVESGGGLVQAGGSLRLSCAASGITSNPYDMGWYRQAAGKERELVAVITSGGSTSYADSVKGRFTISRDNAKNTVYLQLISLKREDTAVYYCNSVYAGWRGGNYWGQGTQVTVSS	low polyreactivity
QDQLVESGGGLVQAGGSLRLSCAASGLIFKYNAMGWSRQAPGKERELVADINRSGGSTYYADSVKGRFTISRDNSKNTVSLQMNSLKPEDSAVYDCAAERVSLYWVIFGYWGQGTQVTVSS	low polyreactivity
QDQLVESGGGLVQAGGSLRLSCAASGLIFYDNLGWYRQAPGKERELVAAISSSGGSTSYADSVKGRFTISRDNAKNTVYLQMNSLKPEDTAVYYCAADSYPAYLGFVGFDYWGQGTQVTVSS	low polyreactivity
QDQLVESGGGLVQAGGSLRLSCAASGLNLGIYAMGWYRQAPGKERELVAAISRGGGSTYYADSVKGRFTISRDNAKNTVYLQMNSLKPEDTAVFYCNAVRYRYGVFPYYYWGQGTQVTVSS	high polyreactivity
QDQLVESGGGLVQAGGSLRLSCAASGLTFYSNTMGWYRQAPGKERELVAGISWGGDTTYYADSVKGRFTISRDNAKNTVYLQMNSLKPEDTAVYYCAADRSYWRHRYSYDYWGQGTQVTVSS	low polyreactivity
QDQLVESGGGLVQAGGSLRLSCAASGNIFDYYAMGWYRQAPGKERELVATITWSSGRTYYADSVKGRFTISRDNAKNTVYLQMNSLKTEDTAVYYCNTRSYTRYDYWGQGTQVTVSS	low polyreactivity
QDQLVESGGGLVQAGGSLRLSCAASGRIFKFNAMGWYRPAPGKERELVAAITSGGSTNYADSVKGRFTLSRDNEKNTVYLQMNSLKREDTAVYYCAKSTPRFYPRGFYYWGHGTQVTVSS	low polyreactivity
